Earlier results in patent US9205345B2, “Spray-drying apparatus and methods of using the same” (Bend Research, Inc., priority 2010, dated 2015).

How the values were obtained:
[1] = not given; remark: listed apart in the source
[2] = not given; remark: listed apart in the source

## CC(C)(C)NCC(O)c1ccc(O)c(CO)c1 (centres unmarked) [Active Agent 1, 4-[2-(tert-butylamino)-1-hydroxyethyl]-2-(hydroxymethyl)phenol, reference compound]
other
  solubility in water: freely soluble in water
[1]
  Log P: 0.11

## Peptide YY (PYY) [Active Agent 3]
other
  solubility in water: soluble in water

## insulin [Active Agent 2]
[1]
  Log P: 0.22
[2]
  pKa: 5.39
